Source: paper PMC11077774, “Molecular mechanism for recognition of the cargo adapter Rab6^GTP by the dynein adapter BicD2” (Life Science Alliance, 2024)

What was measured:
Test in all cases: pull-down; GST-tagged Rab6^GTP (WT = Q72L, or mutant) held on glutathione Sepharose columns, 1 mM GTP and 2 mM MgCl2 added for 30 min; purified BicD2-CTD added and incubated 30 min; washed, eluted with glutathione; SDS-PAGE (16%), Coomassie, band intensities quantified with ImageJ, ratio of bound BicD2-CTD/Rab6^GTP normalised to WT = 1; three experiments
Conditions in all cases: both partners purified
[1] = molecular target: T1, GST-tagged Rab6^GTP (Rab6a/Q72L) Q65A mutant (human, UniProt P20340 1-208, Q72L | Q65A)
T1 construct: Rab6a, human, full length, Q72L background with Q65A; Loaded with 1 mM GTP and 2 mM MgCl2 on the column; source: E. coli BL20(DE3)-RIL, purified by glutathione Sepharose, washed but not eluted; not shown: GST, N-terminal, kept

[2] = molecular target: T2, full-length GTP-bound Rab6a/Q72L with N-terminal GST tag (human, UniProt P20340 1-208, Q72L)
T2 construct: pGEX6P1 vector, PreScission site after GST; Construct described in Gibson et al, 2023; also called Rab6^GTP WT; Rab6^GTP; source: E. coli BL20(DE3)-RIL, purified by glutathione Sepharose, washed but not eluted; not shown: GST, N-terminal, kept

[3] = molecular target: T3, GST-tagged Rab6^GTP (Rab6a/Q72L) S52A mutant (human, UniProt P20340 1-208, Q72L | S52A)
T3 construct: Rab6a, human, full length, Q72L background with S52A; Loaded with 1 mM GTP and 2 mM MgCl2 on the column; also called phosphonegative mutation S52A; source: E. coli BL20(DE3)-RIL, purified by glutathione Sepharose, washed but not eluted; not shown: GST, N-terminal, kept

[4] = molecular target: T4, GST-tagged Rab6^GTP (Rab6a/Q72L) K53A mutant (human, UniProt P20340 1-208, Q72L | K53A)
T4 construct: Rab6a, human, full length, Q72L background with K53A; Loaded with 1 mM GTP and 2 mM MgCl2 on the column; source: E. coli BL20(DE3)-RIL, purified by glutathione Sepharose, washed but not eluted; not shown: GST, N-terminal, kept

Measured: binding result

T2 sequence (P20340 whole entry Q72L): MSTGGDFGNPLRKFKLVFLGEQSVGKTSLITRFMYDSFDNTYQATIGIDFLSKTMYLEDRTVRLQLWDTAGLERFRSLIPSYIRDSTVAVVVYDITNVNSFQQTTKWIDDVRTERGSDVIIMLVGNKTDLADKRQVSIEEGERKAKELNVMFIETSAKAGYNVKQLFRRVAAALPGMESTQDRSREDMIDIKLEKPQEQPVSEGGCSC
T3 sequence (P20340 whole entry S52A/Q72L): as the sequence (P20340 whole entry Q72L) above, with S52A counted along it
T4 sequence (P20340 whole entry K53A/Q72L): as the sequence (P20340 whole entry Q72L) above, with K53A counted along it
T1 sequence (P20340 whole entry Q65A/Q72L): as the sequence (P20340 whole entry Q72L) above, with Q65A counted along it

B1: BicD2-CTD (C-terminal cargo-binding domain of human Bicaudal D2, residues 715-804) (domain or fragment, UniProt Q8TD16 715-804, looked up)
chain: YENEKAMVTETMMKLRNELKALKEDAATFSSLRAMFATRCDEYITQLDEMQRQLAAAEDEKKTLNSLLRMAIQQKLALTQRLELLELDHE
notes: Construct described in Gibson et al, 2022; also called BicD2-CTD WT
binds: all assays above
